Columns and labels:
[1] = target: chicken GCRP receptor (chicken)
[2] = target: Xenopus GCRP receptor (Xenopus)
[3] = target: human GIPR (human) (UniProt P48546)
Chain of human GIPR (human) (P48546 22-466): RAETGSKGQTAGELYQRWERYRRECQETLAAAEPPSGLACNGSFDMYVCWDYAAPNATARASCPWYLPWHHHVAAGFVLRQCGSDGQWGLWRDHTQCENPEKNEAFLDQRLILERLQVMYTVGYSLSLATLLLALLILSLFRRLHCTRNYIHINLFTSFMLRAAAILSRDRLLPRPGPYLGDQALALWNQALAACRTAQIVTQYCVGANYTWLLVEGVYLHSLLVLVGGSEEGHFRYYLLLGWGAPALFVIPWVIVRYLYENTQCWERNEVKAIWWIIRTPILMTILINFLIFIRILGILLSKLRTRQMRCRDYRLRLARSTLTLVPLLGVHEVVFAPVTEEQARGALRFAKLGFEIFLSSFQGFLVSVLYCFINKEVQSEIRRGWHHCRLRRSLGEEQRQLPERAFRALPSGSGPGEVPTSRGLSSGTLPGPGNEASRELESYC

Chain of Human GLP1 (peptide) (peptide): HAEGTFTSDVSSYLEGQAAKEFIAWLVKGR
Chain of Human GCG (peptide) (peptide): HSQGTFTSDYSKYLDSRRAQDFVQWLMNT

Row | Substance | CRE-luc reporter, HEK293T cells with the receptor: EC50 [1] [nM] | CRE-luc reporter, HEK293T cells with the receptor: Emax (fold induction) [1] | CRE-luc reporter, HEK293T cells with the receptor: EC50 [2] [nM] | CRE-luc reporter, HEK293T cells with the receptor: Emax (fold induction) [2] | CRE-luc reporter, HEK293T cells with the receptor: EC50 [3] [nM]
1 | Human GCG (peptide) | 35.3 | 6.3 | 49.4 | 32.7 | –
2 | Exendin-4 (peptide) | – | – | – | – | 100
3 | Human GLP1 (peptide) | 120 | 6.24 | 391 | 35 | –

Source: article PMC3679108, “A Novel Glucagon-Related Peptide (GCRP) and Its Receptor GCRPR Account for Coevolution of Their Family Members in Vertebrates” (PLoS ONE, 2013)
